Patent US20250109190A1 (BYOMASS, published 2025)

What was measured:
Experiment in all cases: BLI Octet; IgG, avid
human GDF11 = human GDF11 (human, UniProt O95390 299-407)
BMP10 = target: T1, BMP10 (UniProt O95393 317-424)
T1 sequence (looked up): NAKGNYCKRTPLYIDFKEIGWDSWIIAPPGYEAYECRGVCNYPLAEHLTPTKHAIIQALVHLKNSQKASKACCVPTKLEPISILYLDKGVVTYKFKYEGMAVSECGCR

human GDF10 = target: T2, human GDF10 (human, UniProt P55107 369-478)
T2 sequence (looked up): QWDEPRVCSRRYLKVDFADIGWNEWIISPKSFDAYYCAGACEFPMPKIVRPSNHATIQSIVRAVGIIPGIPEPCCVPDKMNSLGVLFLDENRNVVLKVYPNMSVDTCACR

GDF15 Fc = target: T3, GDF15 Fc (UniProt Q99988 197-308, limits assumed)
T3 construct: species not given; not shown: Fc part of the fusion
T3 sequence (looked up): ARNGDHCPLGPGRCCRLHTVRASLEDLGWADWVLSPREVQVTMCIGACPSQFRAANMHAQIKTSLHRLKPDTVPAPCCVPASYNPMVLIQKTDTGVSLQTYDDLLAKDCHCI

human GDF8 = human GDF8 (human, UniProt O14793 267-375)
human GDNF = target: T4, human GDNF (human, UniProt P39905 78-211, limits assumed)
T4 sequence (looked up): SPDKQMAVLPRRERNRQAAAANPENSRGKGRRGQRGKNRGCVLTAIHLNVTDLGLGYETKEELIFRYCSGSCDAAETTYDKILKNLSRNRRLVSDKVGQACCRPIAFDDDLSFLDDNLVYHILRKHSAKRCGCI

BMP9 = target: T5, BMP9 (UniProt Q9UK05 320-429)
T5 sequence (looked up): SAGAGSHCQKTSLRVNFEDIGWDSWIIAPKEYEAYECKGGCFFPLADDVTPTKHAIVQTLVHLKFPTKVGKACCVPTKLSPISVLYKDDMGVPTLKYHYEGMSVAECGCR

Activin B = target: T6, Activin B (UniProt P09529 293-407)
T6 sequence (looked up): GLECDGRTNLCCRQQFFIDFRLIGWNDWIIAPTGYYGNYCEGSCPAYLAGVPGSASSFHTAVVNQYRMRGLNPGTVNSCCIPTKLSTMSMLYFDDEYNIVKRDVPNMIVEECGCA

Measured: binding result

human GDF11, sequence (O95390 299-407 limits assumed): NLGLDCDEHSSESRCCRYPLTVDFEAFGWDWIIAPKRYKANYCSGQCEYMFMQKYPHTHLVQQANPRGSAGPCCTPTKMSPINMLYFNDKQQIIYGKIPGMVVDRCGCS

B1: Antibody L (Clone L), IgG (antibody, V domains shown)
VH: QVQLQESGPGLVKPSETLSLTCAVSGYSISSGYYWGWIRQPPGKGLEWIGSIYHSGSTYYNPSLKSRVTISVDTSKNQFSLKLSSVTAADTAVYYCAREAGSGYWYLSVYGMDVWGQGTTVTVSS
VL: EIVLTQSPATLSVSPGERATLSCRASQSVSSNLAWYQQKPGQAPRLLIYGASTRATGIPARFSGSGSGTEFTLTISSLQSEDFAVYYCQQSDDWPWTFGGGTKVEIKR
notes: IgG
not listed: Activin B
no binding (tested: 100 nM): all other assays above

B2: Antibody M (Clone M), IgG (antibody, V domains shown)
VH: QLQLQESGPGLVKPSETLSLTCTVSGGSISSSDYYWGWIRQPPGKGLEWIGSIYYPANTYYNPSLKSRVTISVDTSKNQFSLKLSSVTAADTAVYYCARGYWNYGMDVWGQGTTVTVSS
VL: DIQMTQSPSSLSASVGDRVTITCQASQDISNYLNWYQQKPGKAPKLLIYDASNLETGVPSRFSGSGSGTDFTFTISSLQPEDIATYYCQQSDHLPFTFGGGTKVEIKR
notes: IgG
not listed: Activin B
no binding (tested: 100 nM): all other assays above

B3: Antibody N (Clone N), IgG (antibody, V domains shown)
VH: QLQLQESGPGLVKPSETLSLTCTVSGGSISSSDYYWGWIRQPPGKGLEWIGSIYYPASTYYNPSLKSRVTISVDTSKNQFSLKLSSVTAADTAVYYCARGYWNYGMDVWGQGTTVTVSS
VL: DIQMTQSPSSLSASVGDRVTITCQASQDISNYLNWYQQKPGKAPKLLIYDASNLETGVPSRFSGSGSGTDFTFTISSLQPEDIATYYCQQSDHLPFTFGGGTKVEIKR
notes: IgG
not listed: Activin B
no binding (tested: 100 nM): all other assays above

B4: Antibody P (Clone P), IgG (antibody, V domains shown)
VH: QVQLVQSGAEVKKPGSSVKVSCKASGGTFDDYAISWVRQAPGQGLEWMGGIIPRFGIANYAQKFQGRVTITADESTSTAYMELSSLRSEDTAVYYCARPPSSGSDWGQGTLVTVSS
VL: DIQMTQSPSSVSASVGDRVTITCRASQGIDSWLAWYQQKPGKAPKLLIYAASSLQSGVPSRFSGSGSGTDFTLTISSLQPEDFATYYCQQVHSFPITFGGGTKVEIKR
notes: IgG
not listed: Activin B
no binding (tested: 100 nM): all other assays above

B5: Antibody A (Clone A), IgG (antibody, V domains shown)
VH: QVQLVQSGAEVKKPGASVKVSCKASGYTFTGYYMHWVRQAPGQGLEWMGSINPSSGGTNYAQKFQGRVTMTTDTSTSTAYMELRSLRSDDTAVYYCARARDIAAAGLGAFDYWGQGTLVTVSS
VL: EIVLTQSPGTLSLSPGERATLSCRASQSVRSSYLAWYQQKPGQAPRLLIYGASSRATGIPDRFSGSGSGTDFTLTISRLEPEDFAVYYCQQYVSYPRTFGGGTKVEIKR
notes: IgG
no binding (tested: 100 nM): all assays above

B6: Antibody F (Clone F), IgG (antibody, V domains shown)
VH: QVQLVQSGAEVKKPGASVKVSCKASGYTFTGYHIHWVRQVPGQGLEWMGVISAYSGDTNYAQKLQGRVTMTTDTSTSTAYMELRSLRSDDTAVYYCARARDIAALGLGAFDYWGQGTLVTVSS
VL: EIVLTQSPATLSVSPGERATLSCRASQSVSSNLAWYQQKPGQAPRLLIYGASDRATGIPARFSGSGSGTEFTLTISSLQSEDFAVYYCIQYSNYPRTFGGGTKVEIKR
notes: IgG
not listed: human GDF11 | Activin B
no binding (tested: 100 nM): all other assays above

B7: Antibody C (Clone C), IgG (antibody, V domains shown)
VH: QVQLVQSGAEVKKPGASVKVSCKASGYTFPGYHMHWVRQAPGQGLEWMGVINPSSGDTNYAQKFQGRVTMTRDTSISTAYMELSRLRSDDTAVYYCARARDIAALGLGAFDYWGQGTLVTVSS
VL: EIVLTQSPGTLSLSPGERATLSCRASQSVSSSYLAWYQQKPGQAPRLLIYGASSRAGGIPDRFSGSGSGTDFTLTISRLEPEDFAVYYCQQYVAYPRTFGGGTKVEIKR
notes: IgG
not listed: human GDF11 | Activin B
no binding (tested: 100 nM): all other assays above

B8: Antibody H (Clone H), IgG (antibody, V domains shown)
VH: QVQLVQSGAEVKKPGASVKVSCKASGYTFTGYHIHWVRQAPGQGLEWMGHISAYSGTTNYAQKLQGRVTMTTDTSTSTAYMELRSLRSDDTAVYYCARARDIAAAGLGAFDYWGQGTLVTVSS
VL: EIVLTQSPGTLSLSPGERATLSCRASQSVRSSYLAWYQQKPGQAPRLLIYGASSRATGIPDRFSGSGSGTDFTLTISRLEPEDFAVYYCQQYSNYPRTFGGGTKVEIKR
notes: IgG
not listed: Activin B
no binding (tested: 100 nM): all other assays above

B9: Antibody E (Clone E), IgG (antibody, V domains shown)
VH: QVQLVQSGAEVKKPGASVKVSCKASGYTFHGYNMHWVRQAPGQGLEWMGSINPYSGYTIYAQKFQGRVTMTRDTSISTAYMELSRLRSDDTAVYYCARARDIAAAGLGAFDYWGQGTLVTVSS
VL: EIVLTQSPGTLSLSPGERATLSCRASQSVRSSYLAWYQQKPGQAPRLLIYGASSRATGIPDRFSGSGSGTDFTLTISRLEPEDFAVYYCQQYVSYPRTFGGGTKVEIKR
notes: IgG
not listed: human GDF11 | Activin B
no binding (tested: 100 nM): all other assays above

B10: Antibody D (Clone D), IgG (antibody, V domains shown)
VH: QVQLVQSGAEVKKPGASVKVSCKASGYTFFGYSMHWVRQAPGQGLEWMGVINPSSGDTNYAQKFQGRVTMTRDTSISTAYMELSRLRSDDTAVYYCARARDIAALGLGAFDYWGQGTLVTVSS
VL: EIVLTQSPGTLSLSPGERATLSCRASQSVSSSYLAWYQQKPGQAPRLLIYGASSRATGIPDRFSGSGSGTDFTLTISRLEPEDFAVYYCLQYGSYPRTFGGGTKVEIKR
notes: IgG
not listed: human GDF11 | Activin B
no binding (tested: 100 nM): all other assays above

B11: Antibody B (Clone B), IgG (antibody, V domains shown)
VH: QVQLVQSGAEVKKPGASVKVSCKASGYTFIGYDMHWVRQAPGQGLEWMGVINPSSGGTNYAQKFQGRVTMTRDTSISTAYMELSRLRSDDTAVYYCARARDIAALGLGAFDYWGQGTLVTVSS
VL: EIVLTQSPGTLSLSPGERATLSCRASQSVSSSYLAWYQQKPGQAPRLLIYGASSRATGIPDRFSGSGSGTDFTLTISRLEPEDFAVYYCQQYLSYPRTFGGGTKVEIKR
notes: IgG
not listed: human GDF11 | Activin B
no binding (tested: 100 nM): all other assays above
